Laboratory results as given in patent publication US12606852B2, “Conversion of lignin-derived monomers to muconate by engineered pseudomonas” (Alliance for Sustainable Energy, LLC, priority 2021, dated 2026).
Where “and” joins values, the source holds several entries; their conditions need not be identical. Equal entries are not always repeated.

Key:
Assay in all cases: purified protein, by the assay type
[1] = substrate: O=C(O)c1ccc(O)cc1
[2] = substrate: NC(=O)C1=CN([C@@H]2O[C@H](COP(=O)(O)OP(=O)(O)OC[C@H]3O[C@@H](n4cnc5c(N)ncnc54)[C@H](OP(=O)(O)O)[C@@H]3O)[C@@H](O)[C@H]2O)C=CC1
[3] = substrate: NC(=O)C1=CN([C@@H]2O[C@H](COP(=O)(O)OP(=O)(O)OC[C@H]3O[C@@H](n4cnc5c(N)ncnc54)[C@H](O)[C@@H]3O)[C@@H](O)[C@H]2O)C=CC1; conditions: pH 8.0; 25.0 °C

| Protein | Km ([1]; other: NADPH as reducing equivalent, NADPH detection (340 nm), air-saturated, 300 μM NAD(P)H, pH 8, 25° C.) | Km ([1]; other: NADPH as reducing equivalent, O2 detection (oxygraph), air-saturated, 300 μM NAD(P)H, pH 8, 25° C.) | Km ([2]; other: NADPH varied, NADPH detection (340 nm), air-saturated, 200 μM 4-hydroxybenzoate, pH 8, 25° C.) | Km ([2]; other: NADPH varied, O2 detection (oxygraph), air-saturated, 200 μM 4-hydroxybenzoate, pH 8, 25° C.) | Km ([1]; pH 8.0, 25.0 °C) | Km ([2]; pH 8.0, 25.0 °C) | Km [3] |
| --- | --- | --- | --- | --- | --- | --- | --- |
| Pseudomonas putida KT2440 PobA (para-hydroxybenzoate-3-hydroxylase, PHBH), native, PP_3537, tagless, pobA_EC gene SEQ ID NO: 1 (Pseudomonas putida KT2440) (protein) MKTQVAIIGAGPSGLLLGQLLHKAGIDNIIVERQTAEYVLGRIRAGVLEQGTVDLLREAGVAERMDREGLVHEGVELLVGGRRQRLDLKALTGGKTVMVYGQTEVTRDLMQAREASGAPIIYSAANVQPHELKGEKPYLTFEKDGRVQRIDCDYIAGCDGFHGISRQSIPEGVLKQYERVYPFGWLGLLSDTPPVNHELIYAHHERGFALCSQRSQTRSRYYLQVPLQDRVEEWSDERFWDELKARLPAEVAADLVTGPALEKSIAPLRSLVVEPMQYGHLFLVGDAAHIVPPTGAKGLNLAASDVNYLYRILVKVYHEGRVDLLAQYSPLALRRVWKGERFSWFMTQLLHDFGSHKDAWDQKMQEADREYFLTSPAGLVNIAENYVGLPFEEVA | 18 ± 2 µM | 21 ± 1 µM | 43 ± 3 µM | 66 ± 6 µM |  |  |  |
| Paenibacillus sp. JJ-1b PraI (para-hydroxybenzoate-3-hydroxylase, PHBH), BAH79107, tagless, praI_EC gene SEQ ID NO: 3 (Paenibacillus sp.) (protein) RTQVGIIGAGPAGLLLSHLLYLQGIESIIIENRTREEIEGTIRAGVLEQGTVDLMNQMGVGARMMKEGHFHEGFELRFNGRGHRINVHELTGGKYVTVYAQHEVIKDLVAARLQTGGQIHFNVGDVSLHDVDTSSPKIRFRPNKDGELQEIECDFIAGCDGFRGPSRPAIPQSVRKEYQKVYPFSWLGILVEAPPSAHELIYANHERGFALVSTRSPQIQRLYLQVDAQDHIDNWSDDRIWSELHARLETRDGFKLLEGPIFQKGIVSMRSFVCDPMQHGRLFLAGDAAHIVPPTGAKGLNLAAADVQVLARGLEAYYKAGKMEILNRCTEICLRRIWKAERFSWFMTTMLHRDQGHTPFERGIQLAELDYVTSSRAASTSLAENYIGLPMEF |  |  |  |  | 16 ± 1 µM and 19 ± 2 µM and 18 ± 1 µM | 27 ± 1 µM and 33 ± 2 µM | 49 ± 3 µM and 46 ± 4 µM |
